The chains are these.
B1: S-peptide and His6 dually-tagged vIRF-1, bacterially expressed (pET-S-vIRF-1-His6) (natural protein)
chain: MDPGQRPNPFGAPGAIPKKPCLSQGSPGTSGSGAPCDEPSRSESPGEGPSGTGGSAAAGDITRQAVVAAITEWSRTRQLRISTGASEGKASIKDWIVCQVNSGKFPGVEWEDEERTRFRIPVTPLADPCFEWRRDGELGVVYIRERGNMPVDASFKGTRGRRRMLAALRRTRGLQEIGKGISQDGHHFLVFRVRKPEEEQCVECGVVAGAVHDFNNMARLLQEGFFSPGQCLPGEIVTPVPSCTTAEGQEAVIDWGRLFIRMYYNGEQVHELLTTSQSGCRISSALRRDPAVHYCAVGSPGQVWLPNVPNLACEIAKRELCDTLDACAKGILLTSSCNGIFCVCYHNGPVHFIGNTVPPDSGPLLLPQGKPTRIFNPNTFLVGLANSPLPAPSHVTCPLVKLWLGKPVAVGKLEPHAPSPRDFAARCSNFSDACVVLEIMPKPLWDAMQ
notes: source: E. coli BL21(DE3), purified (Ni-NTA)

Assay [1] deals with T1, Flag- and His6-tagged STAT1, bacterially expressed (pET-Flag-STAT1-His6) (human, UniProt P42224 1-750).
T1 construct: also called STAT1 (Flag-tagged); recombinant STAT1; source: E. coli BL21(DE3), purified (Ni-NTA)
T1 sequence: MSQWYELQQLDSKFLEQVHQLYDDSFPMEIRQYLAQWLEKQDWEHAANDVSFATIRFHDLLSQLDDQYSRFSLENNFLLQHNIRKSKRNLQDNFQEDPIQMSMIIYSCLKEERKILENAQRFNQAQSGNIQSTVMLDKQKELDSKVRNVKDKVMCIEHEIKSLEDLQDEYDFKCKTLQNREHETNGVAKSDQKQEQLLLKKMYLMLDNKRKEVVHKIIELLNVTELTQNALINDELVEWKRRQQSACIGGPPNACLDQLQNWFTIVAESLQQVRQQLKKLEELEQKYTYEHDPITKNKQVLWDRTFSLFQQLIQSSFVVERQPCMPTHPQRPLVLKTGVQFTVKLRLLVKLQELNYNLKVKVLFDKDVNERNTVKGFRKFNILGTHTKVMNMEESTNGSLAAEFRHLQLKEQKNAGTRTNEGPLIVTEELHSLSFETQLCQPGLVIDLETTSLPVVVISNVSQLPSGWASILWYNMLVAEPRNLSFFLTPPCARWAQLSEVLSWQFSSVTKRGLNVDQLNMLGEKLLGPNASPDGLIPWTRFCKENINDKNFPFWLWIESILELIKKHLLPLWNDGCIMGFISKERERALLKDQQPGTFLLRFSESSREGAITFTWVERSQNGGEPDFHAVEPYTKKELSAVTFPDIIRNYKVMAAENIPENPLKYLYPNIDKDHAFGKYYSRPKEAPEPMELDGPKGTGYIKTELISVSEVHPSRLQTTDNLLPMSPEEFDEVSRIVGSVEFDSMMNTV
Kind of assay: pull-down. To be noted: both partners purified.

In assay [2] the target is T2, Flag- and His6-tagged STAT2, bacterially expressed (pET-Flag-STAT2-His6) (human, UniProt P52630 1-851).
T2 construct: also called STAT2 (Flag-tagged); recombinant STAT2; source: E. coli BL21(DE3), purified (Ni-NTA)
T2 sequence (P52630 whole entry): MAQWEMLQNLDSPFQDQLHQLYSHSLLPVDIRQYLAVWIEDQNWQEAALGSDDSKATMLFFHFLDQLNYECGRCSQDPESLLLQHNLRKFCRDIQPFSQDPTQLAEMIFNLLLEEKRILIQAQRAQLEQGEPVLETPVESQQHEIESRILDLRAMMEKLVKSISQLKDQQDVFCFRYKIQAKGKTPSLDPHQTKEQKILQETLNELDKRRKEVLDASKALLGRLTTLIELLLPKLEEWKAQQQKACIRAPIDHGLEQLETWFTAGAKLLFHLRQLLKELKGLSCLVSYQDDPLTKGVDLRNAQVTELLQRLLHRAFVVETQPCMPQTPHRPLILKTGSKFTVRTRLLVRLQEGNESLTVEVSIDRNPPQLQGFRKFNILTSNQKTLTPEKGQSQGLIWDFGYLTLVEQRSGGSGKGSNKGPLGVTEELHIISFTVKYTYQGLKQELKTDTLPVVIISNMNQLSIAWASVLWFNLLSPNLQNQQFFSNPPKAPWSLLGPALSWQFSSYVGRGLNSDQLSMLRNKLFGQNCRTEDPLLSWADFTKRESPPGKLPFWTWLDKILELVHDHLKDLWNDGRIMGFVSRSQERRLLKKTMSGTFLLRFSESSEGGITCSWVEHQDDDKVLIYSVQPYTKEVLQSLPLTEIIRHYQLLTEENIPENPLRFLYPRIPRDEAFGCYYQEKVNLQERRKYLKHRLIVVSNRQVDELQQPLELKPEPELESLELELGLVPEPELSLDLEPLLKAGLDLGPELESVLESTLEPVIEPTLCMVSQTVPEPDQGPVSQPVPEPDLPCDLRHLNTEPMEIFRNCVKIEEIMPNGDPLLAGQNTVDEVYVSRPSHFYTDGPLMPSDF
The assay is described as follows: pull-down. Conditions: both partners purified.

The target in assay [3] is T3, chitin-binding domain (CBD)-tagged STAT2 (human (HeLa cDNA library), UniProt P52630 1-851).
T3 construct: also called STAT2-CBD; CBD-fused STAT2
T3 sequence (P52630 whole entry, the tested form may be a part): as the sequence (P52630 whole entry) above
Kind of assay: co-IP. To be noted: partners not purified.

Assay [4] deals with B1. The assay is described as follows: pull-down. Conditions: both partners purified.

Take B1: the binding result in assay [1] and in assay [2] was “binds” throughout.

B2: StrepII+Flag (SF)-tagged vIRF-1 (natural protein)
chain: MDPGQRPNPFGAPGAIPKKPCLSQGSPGTSGSGAPCDEPSRSESPGEGPSGTGGSAAAGDITRQAVVAAITEWSRTRQLRISTGASEGKASIKDWIVCQVNSGKFPGVEWEDEERTRFRIPVTPLADPCFEWRRDGELGVVYIRERGNMPVDASFKGTRGRRRMLAALRRTRGLQEIGKGISQDGHHFLVFRVRKPEEEQCVECGVVAGAVHDFNNMARLLQEGFFSPGQCLPGEIVTPVPSCTTAEGQEAVIDWGRLFIRMYYNGEQVHELLTTSQSGCRISSALRRDPAVHYCAVGSPGQVWLPNVPNLACEIAKRELCDTLDACAKGILLTSSCNGIFCVCYHNGPVHFIGNTVPPDSGPLLLPQGKPTRIFNPNTFLVGLANSPLPAPSHVTCPLVKLWLGKPVAVGKLEPHAPSPRDFAARCSNFSDACVVLEIMPKPLWDAMQ
Regarding B2, the binding result in assay [3] was “binds”.

B3: Flag- and His6-tagged IRF9, bacterially expressed (pET-Flag-IRF9-His6) (natural protein)
chain: MASGRARCTRKLRNWVVEQVESGQFPGVCWDDTAKTMFRIPWKHAGKQDFREDQDAAFFKAWAIFKGKYKEGDTGGPAVWKTRLRCALNKSSEFKEVPERGRMDVAEPYKVYQLLPPGIVSGQPGTQKVPSKRQHSSVSSERKEEEDAMQNCTLSPSVLQDSLNNEEEGASGGAVHSDIGSSSSSSSPEPQEVTDTTEAPFQGDQRSLEFLLPPEPDYSLLLTFIYNGRVVGEAQVQSLDCRLVAEPSGSESSMEQVLFPKPGPLEPTQRLLSQLERGILVASNPRGLFVQRLCPIPISWNAPQAPPGPGPHLLPSNECVELFRTAYFCRDLVRYFQGLGPPPKFQVTLNFWEESHGSSHTPQNLITVKMEQAFARYLLEQTPEQQAAILSLV
notes: also called IRF9 (Flag-tagged); recombinant IRF9; source: E. coli BL21(DE3), purified (Ni-NTA)
For B3, the binding result in assay [4] was “binds”.

B4: Flag-tagged STAT1 (pCEBZ-STAT1-SF) (natural protein)
chain: MSQWYELQQLDSKFLEQVHQLYDDSFPMEIRQYLAQWLEKQDWEHAANDVSFATIRFHDLLSQLDDQYSRFSLENNFLLQHNIRKSKRNLQDNFQEDPIQMSMIIYSCLKEERKILENAQRFNQAQSGNIQSTVMLDKQKELDSKVRNVKDKVMCIEHEIKSLEDLQDEYDFKCKTLQNREHETNGVAKSDQKQEQLLLKKMYLMLDNKRKEVVHKIIELLNVTELTQNALINDELVEWKRRQQSACIGGPPNACLDQLQNWFTIVAESLQQVRQQLKKLEELEQKYTYEHDPITKNKQVLWDRTFSLFQQLIQSSFVVERQPCMPTHPQRPLVLKTGVQFTVKLRLLVKLQELNYNLKVKVLFDKDVNERNTVKGFRKFNILGTHTKVMNMEESTNGSLAAEFRHLQLKEQKNAGTRTNEGPLIVTEELHSLSFETQLCQPGLVIDLETTSLPVVVISNVSQLPSGWASILWYNMLVAEPRNLSFFLTPPCARWAQLSEVLSWQFSSVTKRGLNVDQLNMLGEKLLGPNASPDGLIPWTRFCKENINDKNFPFWLWIESILELIKKHLLPLWNDGCIMGFISKERERALLKDQQPGTFLLRFSESSREGAITFTWVERSQNGGEPDFHAVEPYTKKELSAVTFPDIIRNYKVMAAENIPENPLKYLYPNIDKDHAFGKYYSRPKEAPEPMELDGPKGTGYIKTELISVSEVHPSRLQTTDNLLPMSPEEFDEVSRIVGSVEFDSMMNTV
notes: also called STAT1-Flag
Regarding B4, in assay [3], the binding result is “binds”.

For the origin of these results see article PMC9307175 (PLoS Pathogens, 2022).
